Source: PMC12102759

B1: SH3BP2 peptide 410-425 (SH3 domain-binding protein 2), 16-mer library wild type / TNKS ANK (TNKS 12 ANK repeats, residues 174-649) (parent)
chain 1: LPHLQRSPPDGQSFRS
chain 2: TGVPAVSGALRELLEACRNGDVSRVKRLVDAANVNAKDMAGRKSSPLHFAAGFGRKDVVEHLLQMGANVHARDDGGLIPLHNACSFGHAEVVSLLLCQGADPNARDNWNYTPLHEAAIKGKIDVCIVLLQHGADPNIRNTDGKSALDLADPSAKAVLTGEYKKDELLEAARSGNEEKLMALLTPLNVNCHASDGRKSTPLHLAAGYNRVRIVQLLLQHGADVHAKDKGGLVPLHNACSYGHYEVTELLLKHGACVNAMDLWQFTPLHEAASKNRVEVCSLLLSHGADPTLVNCHGKSAVDMAPTPELRERLTYEFKGHSLLQAAREADLAKVKKTLALEIINFKQPQSHETALHCAVASLHPKRKQVTELLLRKGANVNEKNKDFMTPLHVAAERAHNDVMEVLHKHGAKMNALDTLGQTALHRAALAGHLQTCRLLLSYGSDPSIISLQGFTAAQMGNEAVQQILSESTPIRTSD

Variants of: B1
Assay: proteomic peptide phage display deep mutational scan (ProP-PD DMS): M13 P8 16-mer library selected against immobilised GST-tagged bait for four days (rounds), NGS of the eluted pools per day and pseudo-replica
Settings: with TNKS ANK (TNKS 12 ANK repeats, residues 174-649); bait immobilised on MaxiSorp plates (10 µg), library pre-cleared on GST, 2 h binding at 4 °C, five washes; one round per day, days 1-4; value from days 2 and 3; keep out of graded; scale: average fractional NGS count over selection days 2 and 3

Question: chain 1 LPHLQRSPPSGQSFRS [chain 1 D10S] was tested. Which screen value did it give?
Answer: Its screen value is 7.49e-05.

Question: chain 1 LPHLQRSPPWGQSFRS [chain 1 D10W] was tested. Which screen value did it give?
Answer: The screen value was 7.2e-05.

Question: For chain 1 LPHLQRSPPDGQSRRS [chain 1 F14R], which screen value is on record?
Answer: Its screen value is 2.25e-05.

Question: chain 1 LPHLQRSPPDAQSFRS [chain 1 G11A] was tested. Which screen value did it give?
Answer: The screen value was 0.

Question: How did the screen value turn out when chain 1 LPHLQRSPPDDQSFRS [chain 1 G11D] was run?
Answer: Its screen value is 0.000101.

Question: chain 1 LPHLQRSPPDEQSFRS [chain 1 G11E] was tested. Which screen value did it give?
Answer: Its screen value is 0.

Question: chain 1 LPHLQRSPPDLQSFRS [chain 1 G11L] was tested. Which screen value did it give?
Answer: The screen value was 0.

Question: How did the screen value turn out when chain 1 LPHLQRSPPDRQSFRS [chain 1 G11R] was run?
Answer: The screen value was 2.25e-05.

Question: With chain 1 LPDLQRSPPDGQSFRS [chain 1 H3D] as the variant, how does the screen value read?
Answer: Its screen value is 4.19e-05.

Question: How did the screen value turn out when chain 1 LPKLQRSPPDGQSFRS [chain 1 H3K] was run?
Answer: Its screen value is 5.51e-05.

Question: chain 1 LPRLQRSPPDGQSFRS [chain 1 H3R] was tested. Which screen value did it give?
Answer: The screen value was 3.96e-05.

Question: With chain 1 LPSLQRSPPDGQSFRS [chain 1 H3S] as the variant, how does the screen value read?
Answer: The screen value was 9.56e-05.

Question: With chain 1 LPHKQRSPPDGQSFRS [chain 1 L4K] as the variant, how does the screen value read?
Answer: The screen value was 3.15e-05.

Question: chain 1 LPHRQRSPPDGQSFRS [chain 1 L4R] was tested. Which screen value did it give?
Answer: The screen value was 2.25e-05.

Question: chain 1 LKHLQRSPPDGQSFRS [chain 1 P2K] was tested. Which screen value did it give?
Answer: The screen value was 3.03e-05.

Question: How did the screen value turn out when chain 1 LWHLQRSPPDGQSFRS [chain 1 P2W] was run?
Answer: The screen value was 0.

Question: For chain 1 LYHLQRSPPDGQSFRS [chain 1 P2Y], which screen value is on record?
Answer: Its screen value is 4.27e-05.

Question: chain 1 LPHLQRSFPDGQSFRS [chain 1 P8F] was tested. Which screen value did it give?
Answer: The screen value was 0.000116.

Question: chain 1 LPHLQRSGPDGQSFRS [chain 1 P8G] was tested. Which screen value did it give?
Answer: Its screen value is 8.51e-05.

Question: For chain 1 LPHLQRSWPDGQSFRS [chain 1 P8W], which screen value is on record?
Answer: The screen value was 7.62e-05.

Question: For chain 1 LPHLQRSPIDGQSFRS [chain 1 P9I], which screen value is on record?
Answer: The screen value was 4.06e-05.

Question: chain 1 LPHLQRSPLDGQSFRS [chain 1 P9L] was tested. Which screen value did it give?
Answer: The screen value was 0.

Question: chain 1 LPHLQRSPMDGQSFRS [chain 1 P9M] was tested. Which screen value did it give?
Answer: Its screen value is 0.000123.

Question: How did the screen value turn out when chain 1 LPHLQRSPVDGQSFRS [chain 1 P9V] was run?
Answer: Its screen value is 0.

Question: For chain 1 LPHLIRSPPDGQSFRS [chain 1 Q5I], which screen value is on record?
Answer: The screen value was 7.42e-05.

Question: chain 1 LPHLRRSPPDGQSFRS [chain 1 Q5R] was tested. Which screen value did it give?
Answer: Its screen value is 6.18e-05.

Question: With chain 1 LPHLQRSPPDGDSFRS [chain 1 Q12D] as the variant, how does the screen value read?
Answer: The screen value was 6.89e-05.

Question: Which screen value does the source give for chain 1 LPHLQRSPPDGRSFRS [chain 1 Q12R] here?
Answer: Its screen value is 6.14e-05.

Question: chain 1 LPHLQASPPDGQSFRS [chain 1 R6A] was tested. Which screen value did it give?
Answer: The screen value was 0.

Question: chain 1 LPHLQESPPDGQSFRS [chain 1 R6E] was tested. Which screen value did it give?
Answer: The screen value was 0.

Question: How did the screen value turn out when chain 1 LPHLQKSPPDGQSFRS [chain 1 R6K] was run?
Answer: The screen value was 0.

Question: With chain 1 LPHLQQSPPDGQSFRS [chain 1 R6Q] as the variant, how does the screen value read?
Answer: The screen value was 0.

Question: How did the screen value turn out when chain 1 LPHLQTSPPDGQSFRS [chain 1 R6T] was run?
Answer: Its screen value is 0.

Question: How did the screen value turn out when chain 1 LPHLQVSPPDGQSFRS [chain 1 R6V] was run?
Answer: Its screen value is 4.06e-05.

Question: Which screen value does the source give for chain 1 LPHLQRSPPDGQSFYS [chain 1 R15Y] here?
Answer: The screen value was 0.000124.

Question: How did the screen value turn out when chain 1 LPHLQRAPPDGQSFRS [chain 1 S7A] was run?
Answer: The screen value was 8.68e-05.

Question: For chain 1 LPHLQRGPPDGQSFRS [chain 1 S7G], which screen value is on record?
Answer: The screen value was 0.

Question: For chain 1 LPHLQRRPPDGQSFRS [chain 1 S7R], which screen value is on record?
Answer: Its screen value is 8.27e-05.

Question: With chain 1 LPHLQRWPPDGQSFRS [chain 1 S7W] as the variant, how does the screen value read?
Answer: The screen value was 1.87e-05.

Question: For chain 1 LPHLQRSPPDGQKFRS [chain 1 S13K], which screen value is on record?
Answer: The screen value was 0.

Question: For chain 1 LPHLQRSPPDGQRFRS [chain 1 S13R], which screen value is on record?
Answer: The screen value was 3.04e-05.

Question: For chain 1 LPHLQRSPPDGQWFRS [chain 1 S13W], which screen value is on record?
Answer: Its screen value is 0.000125.
